Several values for one entry are separate records, joined by “and”; a condition that tells them apart may be missing. Equal values may be shown once.
Target: PSD95, endogenous, from mouse brain lysate (mouse (endogenous in mouse brain)) (UniProt Q62108)
Experiment: co-IP

Sequence of Phosphorylated Sept7 (pT426), endogenous, from mouse brain lysate (O55131 2-436): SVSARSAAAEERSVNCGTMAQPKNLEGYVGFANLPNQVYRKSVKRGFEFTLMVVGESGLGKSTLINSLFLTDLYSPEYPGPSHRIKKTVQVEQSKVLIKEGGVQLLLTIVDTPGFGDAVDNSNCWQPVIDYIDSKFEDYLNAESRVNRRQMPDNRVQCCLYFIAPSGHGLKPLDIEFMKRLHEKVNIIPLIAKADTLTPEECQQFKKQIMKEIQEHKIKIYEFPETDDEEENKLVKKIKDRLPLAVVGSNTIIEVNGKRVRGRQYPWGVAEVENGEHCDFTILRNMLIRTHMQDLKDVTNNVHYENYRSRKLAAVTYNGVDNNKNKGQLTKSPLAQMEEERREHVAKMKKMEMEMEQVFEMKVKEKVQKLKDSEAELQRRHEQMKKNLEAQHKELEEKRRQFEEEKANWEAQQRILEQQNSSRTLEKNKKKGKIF
Sequence of PSD95, endogenous, from mouse brain lysate (mouse (endogenous in mouse brain)) (Q62108 whole entry): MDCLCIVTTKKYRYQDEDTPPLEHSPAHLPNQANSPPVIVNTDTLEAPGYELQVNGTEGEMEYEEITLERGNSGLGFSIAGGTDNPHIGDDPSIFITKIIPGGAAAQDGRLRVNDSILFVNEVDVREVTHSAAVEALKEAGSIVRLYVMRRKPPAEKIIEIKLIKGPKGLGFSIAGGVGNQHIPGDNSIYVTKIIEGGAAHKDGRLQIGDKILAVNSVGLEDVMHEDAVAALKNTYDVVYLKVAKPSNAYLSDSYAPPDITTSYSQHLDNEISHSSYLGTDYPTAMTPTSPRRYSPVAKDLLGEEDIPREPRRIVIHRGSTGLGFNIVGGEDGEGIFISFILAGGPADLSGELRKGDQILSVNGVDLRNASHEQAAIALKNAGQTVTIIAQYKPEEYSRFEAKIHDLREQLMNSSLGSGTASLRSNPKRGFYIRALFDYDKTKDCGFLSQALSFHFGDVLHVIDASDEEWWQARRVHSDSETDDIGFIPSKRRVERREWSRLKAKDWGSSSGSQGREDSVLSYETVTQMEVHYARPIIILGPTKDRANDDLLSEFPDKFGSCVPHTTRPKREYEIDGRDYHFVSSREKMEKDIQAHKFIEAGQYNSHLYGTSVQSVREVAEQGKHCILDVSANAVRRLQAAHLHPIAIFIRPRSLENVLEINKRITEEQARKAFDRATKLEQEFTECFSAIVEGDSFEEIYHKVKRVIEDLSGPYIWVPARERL

- percent of endogenous Sept7 pulled down with PSD95: 10% and 15%
Substance: Phosphorylated Sept7 (pT426), endogenous, from mouse brain lysate (from UniProt O55131 1-436) (natural protein)
